According to US20160002311A1 (Novo Nordisk, published 2016):
Like-named read-outs stand apart in the source and are kept apart here. Numbered stars: 1 amine (or outer) side, 2 acyl side, 3 side chain; on linkers, the order of the positions; unused ones are H or OH. Square brackets hold non-standard residues; d marks the D form. Side chains are listed from the residue outwards. Ends that are not written are not given here. * marks the point of attachment. C18 diacid = O=C(O)CCCCCCCCCCCCCCCCC(=O)*; γGlu = O=C(O)[C@H](CCC(=O)[*:2])N[*:1]; Orn = NCCC[C@H](N)C(=O)O; AEEA = NCCOCCOCC(=O)O

How the values were obtained:
glucagon receptor [1] = molecular target: T1, glucagon receptor (UniProt P47871 26-477, limits assumed); assay: cell-based or functional assay
glucagon receptor [2] = molecular target: T1, glucagon receptor; assay: cell-based or functional assay; remark: listed apart in the source

T1 sequence (P47871 26-477 limits assumed): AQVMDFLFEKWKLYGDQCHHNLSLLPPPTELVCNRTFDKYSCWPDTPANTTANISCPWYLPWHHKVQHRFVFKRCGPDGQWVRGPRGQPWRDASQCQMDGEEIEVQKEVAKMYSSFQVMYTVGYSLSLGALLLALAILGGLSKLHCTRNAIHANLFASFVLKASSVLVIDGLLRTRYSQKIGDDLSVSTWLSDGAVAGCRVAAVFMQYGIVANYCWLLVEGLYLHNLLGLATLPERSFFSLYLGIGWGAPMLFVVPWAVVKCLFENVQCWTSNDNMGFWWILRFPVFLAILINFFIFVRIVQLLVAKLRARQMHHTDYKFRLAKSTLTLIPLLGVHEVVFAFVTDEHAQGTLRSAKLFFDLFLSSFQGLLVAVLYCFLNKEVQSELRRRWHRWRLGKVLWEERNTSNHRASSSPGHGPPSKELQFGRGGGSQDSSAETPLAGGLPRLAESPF

Binder	Assay (I) Glucagon [EC50] (glucagon receptor [1]) [nM]	Assay (I) Glucagon [EC50] (glucagon receptor [2]) [nM]
HSQGTFTSDYSKYLDSKKAQEFV[Orn]([AEEA-AEEA-γGlu-C18 diacid])WLLST	0.036	
H[dS]QGTFTSDYSKYLDEQAARDFVK([AEEA-AEEA-γGlu-C18 diacid])WLLNT-NH2 (N-terminus assumed; SMILES CC(C)C[C@H](NC(=O)[C@H](Cc1ccc(O)cc1)NC(=O)[C@H](CCCCN)NC(=O)[C@H](CO)NC(=O)[C@H](Cc1ccc(O)cc1)NC(=O)[C@H](CC(=O)O)NC(=O)[C@H](CO)NC(=O)[C@@H](NC(=O)[C@H](Cc1ccccc1)NC(=O)[C@@H](NC(=O)CNC(=O)[C@H](CCC(N)=O)NC(=O)[C@@H](CO)NC(=O)[C@@H](N)Cc1c[nH]cn1)[C@@H](C)O)[C@@H](C)O)C(=O)N[C@@H](CC(=O)O)C(=O)N[C@@H](CCC(=O)O)C(=O)N[C@@H](CCC(N)=O)C(=O)N[C@@H](C)C(=O)N[C@@H](C)C(=O)N[C@@H](CCCNC(=N)N)C(=O)N[C@@H](CC(=O)O)C(=O)N[C@@H](Cc1ccccc1)C(=O)N[C@H](C(=O)N[C@@H](CCCCNC(=O)COCCOCCNC(=O)COCCOCCNC(=O)CC[C@H](NC(=O)CCCCCCCCCCCCCCCCC(=O)O)C(=O)O)C(=O)N[C@@H](Cc1c[nH]c2ccccc12)C(=O)N[C@@H](CC(C)C)C(=O)N[C@@H](CC(C)C)C(=O)N[C@@H](CC(N)=O)C(=O)N[C@H](C(N)=O)[C@@H](C)O)C(C)C)		0.137
HSQGTFTSDYSKYLDSKKAQEFVQWLLNT [[K^17,K^18, E^21, L^27] Glucagon]	0.003	

Second part, the binder after the results:

Assay (I) Glucagon [EC50] (glucagon receptor [1]) [nM]	Assay (I) Glucagon [EC50] (glucagon receptor [2]) [nM]	Binder
0.051		HSQGTFTSDYSKYLDSKKAQEFVK([AEEA-AEEA-γGlu-C18 diacid])WLLDT
0.053		HSQGTFTSDYSKYLDSKKAQEFVQWLLNK([AEEA-AEEA-γGlu-C18 diacid])
